Reference: FireProtDB (doi:10.1046/j.1432-1327.1999.00918.x)
“And” between values parts separate entries of the source, which are not always exact repeats. Equal values may be shown once.

B1: Lysozyme C, P61626 (parent)
chain: MKALIVLGLVLLSVTVQGKVFERCELARTLKRLGMDGYRGISLANWMCLAKWESGYNTRATNYNAGDRSTDYGIFQINSRYWCNDGKTPGAVNACHLSCSALLQDNIADAVACAKRVVRDPQGIRAWVAWRNRCQNRDVRQYVQGCGV

Variants of: B1
Settings: Homo sapiens, Thermal, DSC, glycine 0.05 M, reversible: yes, structure 1LZ1, whole UniProt chain shown

Variant | Tm (pH 2.58) | unfolding enthalpy (calorimetric) (pH 2.58) | unfolding enthalpy (van 't Hoff) (pH 2.58) | Tm (pH 2.7) | change of melting temperature, mutant - wild type (higher = more stable) (pH 2.7) | heat capacity change of unfolding (pH 2.7) | unfolding enthalpy (calorimetric) (pH 2.7) | Tm (pH 2.77) | unfolding enthalpy (calorimetric) (pH 2.77) | unfolding enthalpy (van 't Hoff) (pH 2.77) | Tm (pH 2.5) | unfolding enthalpy (calorimetric) (pH 2.5) | unfolding enthalpy (van 't Hoff) (pH 2.5) | ddG of mutation (higher = less stable) (pH 2.7, 64.9 °C) | Tm (pH 2.95) | unfolding enthalpy (calorimetric) (pH 2.95) | unfolding enthalpy (van 't Hoff) (pH 2.95) | Tm (pH 3.22) | unfolding enthalpy (calorimetric) (pH 3.22) | unfolding enthalpy (van 't Hoff) (pH 3.22)
MKALIVLGLVLLSVTVQGAVFERCELARTLKRLGMDGYRGISLANWMCLAKWESGYNTRATNYNAGDRSTDYGIFQINSRYWCNDGKTPGAVNACHLSCSALLQDNIADAVACAKRVVRDPQGIRAWVAWRNRCQNRDVRQYVQGCGV [K19A] | 60.9 °C | 90.6 kcal/mol | 98.7 kcal/mol | 62.7 °C | -2.2 °C | 1.6 kcal/mol/K | 96.8 kcal/mol | 63.7 °C | 95.1 kcal/mol | 99.4 kcal/mol |  |  |  |  |  |  |  |  |  | 
MKALIVLGLVLLSVTVQGMVFERCELARTLKRLGMDGYRGISLANWMCLAKWESGYNTRATNYNAGDRSTDYGIFQINSRYWCNDGKTPGAVNACHLSCSALLQDNIADAVACAKRVVRDPQGIRAWVAWRNRCQNRDVRQYVQGCGV [K19M] |  |  |  | 64.4 °C and 64.9 °C | -0.5 °C | 1.03 kcal/mol/K | 91.8 kcal/mol |  |  |  | 61.7 °C | 88.4 kcal/mol | 90.1 kcal/mol | 0.12 kcal/mol | 69.1 °C | 95.4 kcal/mol | 97.5 kcal/mol | 70.1 °C | 98.5 kcal/mol | 106 kcal/mol
